Publication PMC10397247

Tests used:
4H2627-bH = target: T1, 4H2627-bH; experiment: two-hybrid library CCNG1;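 note: natural log of median RNA to DNA barcode read ratio; higher means stronger binding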
T1 chain: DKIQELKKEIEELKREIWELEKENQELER

4H1831-bH = target: T2, 4H1831-bH; experiment: two-hybrid library CCNG1;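 note: natural log of median RNA to DNA barcode read ratio; higher means stronger binding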
T2 chain: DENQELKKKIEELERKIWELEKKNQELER

4H3010-bH = target: T3, 4H3010-bH; experiment: two-hybrid library CCNG1;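 note: natural log of median RNA to DNA barcode read ratio; higher means stronger binding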
T3 chain: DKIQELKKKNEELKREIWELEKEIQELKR

4H918-bH = target: T4, 4H918-bH; experiment: two-hybrid library CCNG1;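 note: natural log of median RNA to DNA barcode read ratio; higher means stronger binding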
T4 chain: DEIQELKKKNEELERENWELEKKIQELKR

4H575-bH = target: T5, 4H575-bH; experiment: two-hybrid library CCNG1;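 note: natural log of median RNA to DNA barcode read ratio; higher means stronger binding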
T5 chain: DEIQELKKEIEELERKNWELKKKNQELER

4H780-bH = target: T6, 4H780-bH; experiment: two-hybrid library CCNG1;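 note: natural log of median RNA to DNA barcode read ratio; higher means stronger binding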
T6 chain: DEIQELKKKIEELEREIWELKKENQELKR

4H754-bH = target: T7, 4H754-bH; experiment: two-hybrid library CCNG1
T7 chain: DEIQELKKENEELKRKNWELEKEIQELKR

4H2673-bH = target: T8, 4H2673-bH; experiment: two-hybrid library CCNG1
T8 chain: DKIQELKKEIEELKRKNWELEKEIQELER

4H953-bH = target: T9, 4H953-bH; experiment: two-hybrid library CCNG1
T9 chain: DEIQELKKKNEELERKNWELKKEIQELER

4H3427-bH = target: T10, 4H3427-bH; experiment: two-hybrid library CCNG1
T10 chain: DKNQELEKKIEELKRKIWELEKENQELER

4H626-bH = target: T11, 4H626-bH; experiment: two-hybrid library CCNG1
T11 chain: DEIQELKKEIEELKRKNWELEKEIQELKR

4H2702-bH = target: T12, 4H2702-bH; experiment: two-hybrid library CCNG1
T12 chain: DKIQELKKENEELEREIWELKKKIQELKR

4H2586-bH = target: T13, 4H2586-bH; experiment: two-hybrid library CCNG1
T13 chain: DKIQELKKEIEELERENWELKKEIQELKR

4H3926-bH = target: T14, 4H3926-bH; experiment: two-hybrid library CCNG1
T14 chain: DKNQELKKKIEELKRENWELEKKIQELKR

4H4073-bH = target: T15, 4H4073-bH; experiment: two-hybrid library CCNG1
T15 chain: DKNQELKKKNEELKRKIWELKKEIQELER

4H457-bH = target: T16, 4H457-bH; experiment: two-hybrid library CCNG1
T16 chain: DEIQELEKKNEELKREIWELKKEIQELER

4H968-bH = target: T17, 4H968-bH; experiment: two-hybrid library CCNG1
T17 chain: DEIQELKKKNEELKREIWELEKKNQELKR

4H683-bH = target: T18, 4H683-bH; experiment: two-hybrid library CCNG1
T18 chain: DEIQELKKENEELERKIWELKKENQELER

4H346-bH = target: T19, 4H346-bH; experiment: two-hybrid library CCNG1
T19 chain: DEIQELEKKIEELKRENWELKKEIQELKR

4H855-bH = target: T20, 4H855-bH; experiment: two-hybrid library CCNG1
T20 chain: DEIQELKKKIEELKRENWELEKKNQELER

O4 = target: T21, O4; experiment: two-hybrid library CCNG1
T21 chain: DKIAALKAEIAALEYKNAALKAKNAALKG

4H3112-bH = target: T22, 4H3112-bH; experiment: two-hybrid library CCNG1
T22 chain: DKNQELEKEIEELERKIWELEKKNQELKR

4H797-bH = target: T23, 4H797-bH; experiment: two-hybrid library CCNG1
T23 chain: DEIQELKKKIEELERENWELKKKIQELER

4H3855-AA = target: T24, 4H3855-AA; experiment: two-hybrid library CCmax; settings: mean of both orientations
T24 chain: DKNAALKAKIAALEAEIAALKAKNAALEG

4H3627-AA = target: T25, 4H3627-AA; experiment: two-hybrid library CCmax; settings: mean of both orientations
T25 chain: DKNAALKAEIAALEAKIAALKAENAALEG

4H3343-AA = target: T26, 4H3343-AA; experiment: two-hybrid library CCmax; settings: mean of both orientations
T26 chain: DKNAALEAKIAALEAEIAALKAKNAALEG

4H4001-AA = target: T27, 4H4001-AA; experiment: two-hybrid library CCmax; settings: mean of both orientations
T27 chain: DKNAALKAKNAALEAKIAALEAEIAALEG

4H566-AA = target: T28, 4H566-AA; experiment: two-hybrid library CCmax; settings: mean of both orientations
T28 chain: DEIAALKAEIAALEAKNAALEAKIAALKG

4H967-AA = target: T29, 4H967-AA; experiment: two-hybrid library CCmax; settings: mean of both orientations
T29 chain: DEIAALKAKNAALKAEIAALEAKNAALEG

4H3655-AA = target: T30, 4H3655-AA; experiment: two-hybrid library CCmax; settings: mean of both orientations
T30 chain: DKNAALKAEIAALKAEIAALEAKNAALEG

4H883-AA = target: T31, 4H883-AA; experiment: two-hybrid library CCmax; settings: mean of both orientations
T31 chain: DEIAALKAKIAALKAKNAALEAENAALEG

4H717-AA = target: T32, 4H717-AA; experiment: two-hybrid library CCmax; settings: mean of both orientations
T32 chain: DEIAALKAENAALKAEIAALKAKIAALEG

4H342-AA = target: T33, 4H342-AA; experiment: two-hybrid library CCmax; settings: mean of both orientations
T33 chain: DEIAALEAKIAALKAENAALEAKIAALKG

4H48-AA = target: T34, 4H48-AA; experiment: two-hybrid library CCmax; settings: mean of both orientations
T34 chain: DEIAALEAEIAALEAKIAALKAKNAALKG

4H317-AA = target: T35, 4H317-AA; experiment: two-hybrid library CCmax; settings: mean of both orientations
T35 chain: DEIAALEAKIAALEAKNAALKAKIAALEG

4H3782-AA = target: T36, 4H3782-AA; experiment: two-hybrid library CCmax; settings: mean of both orientations
T36 chain: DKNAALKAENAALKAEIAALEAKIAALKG

4H605-AA = target: T37, 4H605-AA; experiment: two-hybrid library CCmax; settings: mean of both orientations
T37 chain: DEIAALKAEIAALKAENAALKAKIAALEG

4H3427-AA = target: T38, 4H3427-AA; experiment: two-hybrid library CCmax; settings: mean of both orientations
T38 chain: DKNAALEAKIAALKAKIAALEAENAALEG

4H794-AA = target: T39, 4H794-AA; experiment: two-hybrid library CCmax; settings: mean of both orientations
T39 chain: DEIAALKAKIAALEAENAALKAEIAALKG

4H953-AA = target: T40, 4H953-AA; experiment: two-hybrid library CCmax; settings: mean of both orientations
T40 chain: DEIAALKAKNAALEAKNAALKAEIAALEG

4H429-AA = target: T41, 4H429-AA; experiment: two-hybrid library CCmax; settings: mean of both orientations
T41 chain: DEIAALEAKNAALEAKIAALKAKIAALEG

4H687-AA = target: T42, 4H687-AA; experiment: two-hybrid library CCmax; settings: mean of both orientations
T42 chain: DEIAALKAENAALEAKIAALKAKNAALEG

4H906-AA = target: T43, 4H906-AA; experiment: two-hybrid library CCmax; settings: mean of both orientations
T43 chain: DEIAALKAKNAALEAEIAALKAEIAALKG

4H797-AA = target: T44, 4H797-AA; experiment: two-hybrid library CCmax; settings: mean of both orientations
T44 chain: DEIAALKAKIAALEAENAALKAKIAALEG

4H678-AA = target: T45, 4H678-AA; experiment: two-hybrid library CCmax; settings: mean of both orientations
T45 chain: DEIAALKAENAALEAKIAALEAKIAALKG

4H3606-AA = target: T46, 4H3606-AA; experiment: two-hybrid library CCmax; settings: mean of both orientations
T46 chain: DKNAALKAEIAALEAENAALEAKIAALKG

4H335-AA = target: T47, 4H335-AA; experiment: two-hybrid library CCmax; settings: mean of both orientations
T47 chain: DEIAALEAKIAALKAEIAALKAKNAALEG

4H780-AA = target: T48, 4H780-AA; experiment: two-hybrid library CCmax; settings: mean of both orientations
T48 chain: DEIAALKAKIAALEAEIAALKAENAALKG

4H454-AA = target: T49, 4H454-AA; experiment: two-hybrid library CCmax; settings: mean of both orientations
T49 chain: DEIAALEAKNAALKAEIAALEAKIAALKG

4H3844-AA = target: T50, 4H3844-AA; experiment: two-hybrid library CCmax; settings: mean of both orientations
T50 chain: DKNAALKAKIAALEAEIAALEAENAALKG

4H881-AA = target: T51, 4H881-AA; experiment: two-hybrid library CCmax; settings: mean of both orientations
T51 chain: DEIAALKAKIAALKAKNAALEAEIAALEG

4H568-AA = target: T52, 4H568-AA; experiment: two-hybrid library CCmax; settings: mean of both orientations
T52 chain: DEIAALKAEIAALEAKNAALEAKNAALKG

4H918-AA = target: T53, 4H918-AA; experiment: two-hybrid library CCmax; settings: mean of both orientations
T53 chain: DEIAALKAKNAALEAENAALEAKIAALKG

4H3921-AA = target: T54, 4H3921-AA; experiment: two-hybrid library CCmax; settings: mean of both orientations
T54 chain: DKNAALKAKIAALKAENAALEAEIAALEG

4H993-AA = target: T55, 4H993-AA; experiment: two-hybrid library CCmax; settings: mean of both orientations
T55 chain: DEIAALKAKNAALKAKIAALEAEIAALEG

4H3112-AA = target: T56, 4H3112-AA; experiment: two-hybrid library CCmax
T56 chain: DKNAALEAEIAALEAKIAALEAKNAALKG

4H3354-AA = target: T57, 4H3354-AA; experiment: two-hybrid library CCmax; settings: mean of both orientations
T57 chain: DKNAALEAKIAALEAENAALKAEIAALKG

P7A-bH = target: T58, P7A-bH; experiment: two-hybrid library CCNG1
T58 chain: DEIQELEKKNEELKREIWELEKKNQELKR

P5A-bH = target: T59, P5A-bH; experiment: two-hybrid library CCNG1
T59 chain: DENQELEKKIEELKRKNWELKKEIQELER

P8A-bH = target: T60, P8A-bH; experiment: two-hybrid library CCNG1
T60 chain: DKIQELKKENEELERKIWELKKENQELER

P4A-bH = target: T61, P4A-bH; experiment: two-hybrid library CCNG1
T61 chain: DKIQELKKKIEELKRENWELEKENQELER

P3A-bH = target: T62, P3A-bH; experiment: two-hybrid library CCNG1
T62 chain: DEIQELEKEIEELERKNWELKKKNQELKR

P9A-bH = target: T63, P9A-bH; experiment: two-hybrid library CCNG1
T63 chain: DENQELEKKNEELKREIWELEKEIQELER

P6A-bH = target: T64, P6A-bH; experiment: two-hybrid library CCNG1
T64 chain: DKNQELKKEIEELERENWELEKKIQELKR

Binder: DENQELKKKIEELERKIWELEKKNQELER [4H1831-bH]
- interaction score (4H2627-bH): 1.87
- interaction score (4H1831-bH): -0.611
- interaction score (4H3010-bH): 1.32
- interaction score (4H918-bH): -0.221
- interaction score (4H575-bH): -1.81
- interaction score (4H780-bH): 0.511
- interaction score (4H754-bH): 0.0674
- interaction score (4H2673-bH): 0.349
- interaction score (4H953-bH): -0.749
- interaction score (4H3427-bH): 0.584
- interaction score (4H626-bH): 1.02
- interaction score (4H2702-bH): 0.297
- interaction score (4H2586-bH): -1.54
- interaction score (4H3926-bH): -0.549
- interaction score (4H4073-bH): -0.216
- interaction score (4H457-bH): 0.724
- interaction score (4H968-bH): -2.37
- interaction score (4H683-bH): -0.934
- interaction score (4H346-bH): 0.11
- interaction score (4H855-bH): -0.184
- interaction score (O4): -1.48
- interaction score (4H3112-bH): -0.582
- interaction score (4H797-bH): -1.12

Binder: DKNAALEAEIAALEAKIAALEAKNAALKG [4H3112-AA]
- interaction score (4H3855-AA): -0.622
- interaction score (4H3627-AA): 0.212
- interaction score (4H3343-AA): -1.15
- interaction score (4H4001-AA): -1.09
- interaction score (4H566-AA): -1.22
- interaction score (4H967-AA): -1.38
- interaction score (4H3655-AA): -0.414
- interaction score (4H883-AA): 0.194
- interaction score (4H717-AA): -1.33
- interaction score (4H342-AA): -0.739
- interaction score (4H48-AA): 0.163
- interaction score (4H317-AA): -1.3
- interaction score (4H3782-AA): -0.975
- interaction score (4H605-AA): -1.38
- interaction score (4H3427-AA): 2.07
- interaction score (4H794-AA): -1.51
- interaction score (4H953-AA): -1.62
- interaction score (4H429-AA): 0.94
- interaction score (4H687-AA): -0.855
- interaction score (4H906-AA): -1.29
- interaction score (4H797-AA): -1.25
- interaction score (4H678-AA): -1.37
- interaction score (4H3606-AA): -0.965
- interaction score (4H335-AA): 0.64
- interaction score (4H780-AA): -1.01
- interaction score (4H454-AA): -0.722
- interaction score (4H3844-AA): 0.837
- interaction score (4H881-AA): -0.621
- interaction score (4H568-AA): -0.907
- interaction score (4H918-AA): -1.44
- interaction score (4H3921-AA): -1.01
- interaction score (4H993-AA): -0.58
- interaction score (4H3112-AA): -0.157
- interaction score (4H3354-AA): -1.66

Binder: DEIQELEKENEELERENWELEKEIQELER [P1A-bH]
- interaction score (P7A-bH): -0.716
- interaction score (P5A-bH): -0.798
- interaction score (P8A-bH): -0.232
- interaction score (P4A-bH): -0.5
- interaction score (P3A-bH): -1.59
- interaction score (P9A-bH): -1.36
- interaction score (P6A-bH): -0.616
